Consider eight sequences from the supplement of paper PMC12455559.

Series [1] can be described thus: PET hydrolysis, aromatic products released after 48 h (umol product/mg enzyme); higher = more PET depolymerization activity. As to conditions: substrate: cryPow. The procedure: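 HTP-purified, SUMO-cleaved, tagless PET hydrolase candidates (5 ug, 1.43 mg/g PET) were incubated 48 h without shaking with 3.5 mg amorphous PET film (aFilm) or crystalline PET powder (cryPow) in 0.5 mL buffer: NaCitrate pH 4.5/5.5, NaPhosphate pH 6.5/7.5, glycine pH 8.5. Incubation was at 40 or 60 C. Aromatic products (TPA, MHET, BHET) in the supernatant were quantified by UV absorbance at 260/280 nm relative to buffer blanks and expressed per mg enzyme. LCC-ICCG was the positive control on every plate.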

A short description of series [2]: purified protein yield per well (BCA); higher = higher soluble expression. The gist of the method: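 Candidate enzymes were produced in E. coli C41(DE3) grown in 2 mL autoinduction cultures containing 100 µg/mL kanamycin, first at 37 °C for 2 h and then at 18 °C for 40 h. After cell lysis, protein was captured on Ni-charged magnetic beads and freed by SUMO protease cleavage on an OT-2 robot. Purified protein yield per well was read with the Pierce Rapid Gold BCA kit. Values under 25 ug (0.1 mg/mL) fall below the detection threshold.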

Turning to “ATTAAAPAAAVRADSPYQRGPAPTEASVTAARGPFAIAQVTVPAGSGTGFNKGTIYYPTDTGQGTFGGVAVMPGFTSPQSVIQWLGPRLASQGFLVFTLDSLSLVDFPTARSQQLLAALDYLATRSTVRTRLDPNRLAVMGHSMGGGASLWAAQNRPSLKASVPLAPWETDTTWQGVRVPTMIIGGQADTVAPPATMAIPDYTSMTSAPEKAYLELRNGGHGAPATESPTVAKYALSWLKRFVDLDTRYDQFLCPAPAPTTAISQYRDTCPNG [DP058]”, the PET hydrolysis in series [1] (40 °C, pH 5.5) was less than 3; in series [1] (40 °C, pH 6.5), less than 3; in series [1] (40 °C, pH 7.5), less than 3; in series [1] (40 °C, pH 8.5), less than 3; in series [1] (60 °C, pH 5.5), less than 3; in series [1] (60 °C, pH 6.5), less than 3. For the same sequence, the PET hydrolysis was less than 3 in series [1] (60 °C, pH 7.5) and less than 3 in series [1] (60 °C, pH 8.5). For the same sequence, in series [2], the “purified protein yield per well” value was 52 µg.

On to “CAAGGPGASPGLQPTIASLSVDGAFKVMTYTDIPDVPEFGDATVYYPADTPTPIGGVAISPGWTEAQRHINWWGPRLASHGYAVLVLDTNDARRDQPEERAEALIAAVRILRGENDRAESPLQGRVDTGKMAIMGHSMGGGGTLIAANKYPDEIQAAIPFTPWQPDGDFGQITAPTLVMAGSADRVAGVADHAWPHYQSIPETTTKVFMEVDGGNHFIADTRRGTDLGTIGRYGIAWLKLYLDGDERYRSFIYGAEAEVDREKFSRYLTSP [TEP119]”, for which the PET hydrolysis in series [1] (40 °C, pH 4.5) was less than 3; in series [1] (40 °C, pH 5.5) it was less than 3; in series [1] (40 °C, pH 6.5), less than 3; in series [1] (40 °C, pH 7.5), less than 3; in series [1] (60 °C, pH 4.5), less than 3; in series [1] (60 °C, pH 5.5), less than 3. Also, the PET hydrolysis in series [1] (60 °C, pH 6.5) is less than 3; in series [1] (60 °C, pH 7.5), less than 3. In addition, in series [2], the “purified protein yield per well” value came to 78.9 µg.

Consider “CATAGSALVSAPSLSGDGSYEVQTYTDFPDVPEFGAATIYYPVGASEPMGGVAIAPGFTEEQRHIAWWGPRLASHGYAVLVLDTNDRRERPDARADALIAGVTLLRAEGRRRGSPLFGRIDAAKMAIMGHSMGGGGALLAADEHSDLIRAAIPFTPWEPETDLRGISAPTLVLAGAADRVAEVEGHAWRHFSMIPESTPKVYMEIAGGDHYIADTTRGMDLATVGRYAIAWLKLYVDGDEQYRDLIYGEIPPADAAKFSRYVVNP [TEP157]”, for which the PET hydrolysis in series [1] (40 °C, pH 4.5) is less than 3; in series [1] (40 °C, pH 5.5), less than 3; in series [1] (40 °C, pH 6.5) it was less than 3; in series [1] (40 °C, pH 7.5) it was less than 3; in series [1] (60 °C, pH 4.5) it was less than 3; in series [1] (60 °C, pH 5.5), less than 3. Besides, the PET hydrolysis in series [1] (60 °C, pH 6.5) is less than 3; in series [1] (60 °C, pH 7.5) it was less than 3. Besides, in series [2], the “purified protein yield per well” value is 80.2 µg.

Regarding “DQIGQAPTASNITGDGSFAVTSSAVSGQTGFGGGTVYYPTQTGTYPVVAIMPGFLELWDAIKWMGPRLASWGYVVVGVNPNSVFDLPDSRGSQLLAALNWAVGSAPSAVQSRADGTRRGVVGYSMGGGGTLEALSRDTSGKVLAGVAFSPWDTNQNWSTVRQPEFIVGAQNDTVAPPAQHAIPFYNSLAGPKTYVELAGADHLWPTSDNPTGSRAMVSWLKRWLNSDSRFTPFTCGFTGSAISASMSNAC [ESM047]”, the PET hydrolysis came to 20 in series [1] (40 °C, pH 4.5); 55 in series [1] (40 °C, pH 5.5); 47 in series [1] (40 °C, pH 6.5); 8 in series [1] (40 °C, pH 7.5). In series [2], the “purified protein yield per well” value is 48.3 µg.

As for “DSPYERGPDPTTSSIEASSGPFDVDEDSVSSWSVSGFGGGTVYYPEDDGQTYGGVVIAPGYTESSSAMAWLGEYLASHGFVAFNIDTNTRYDQPDSRGRQIEAALDYLAEDSDVSDLVDPNRLAAMGHSMGGGGTLAAAEDRPELKAAIPLTPWHTDKTWGGVTVPTMIIGAENDTIAPNSSHSIPFYNSLSTSTERAYVELDGEGHLVTSSRNTELASNSVSWLKVFVDEDDRYEQFLCPAPSTGWGSPYSDYRDSCPYI [DP033]”, the PET hydrolysis in series [1] (40 °C, pH 5.5) was less than 3; in series [1] (40 °C, pH 6.5), less than 3; in series [1] (40 °C, pH 7.5), less than 3; in series [1] (40 °C, pH 8.5), less than 3. The “purified protein yield per well” value in series [2] amounted to 31 µg.

With “DTGSHERGPDPTEQALEARSGPFDTDDERVSSLGASGFGGGTIYYPEDTSEGDFGAVALAPGYTASSTSYSSLAERIASHGFVVLAFDTNTRYDQPNSRGRQMESALEYLTEDSDVTDRIDTDRQAVSGHSMGGGGTLAAADDNPDLQAAVPLTPWHTQKSWSGMQVPTMIIGAENDSIASVRSHSIRFYESLPGSLEKGYAEVDGASHFAPNSNDDTVAKYTITWLKRFVDNDTRYEQFLCPPPDSGGWGDDLSDYRDSCPTG [DP052]”, the PET hydrolysis in series [1] (40 °C, pH 5.5) was less than 3; in series [1] (40 °C, pH 6.5) it was less than 3; in series [1] (40 °C, pH 7.5) it was less than 3; in series [1] (40 °C, pH 8.5), less than 3. Further, the “purified protein yield per well” value in series [2] is 36 µg.

“DTNPFQRGPAPTEASVSAQKGPFATAQVNVPANSGEGFNDGTIYYPTDTSQGTFGAIAVMPGFLSPQDWIRWYGPTLASQGFVVMTLDSKGFIDSPTARGNQLLAALDYLTTKSKVVDRIDTSRLGVVGWSMGGGGALESTYNRPSLKADVALAPWHVGLDQSKITVPSLILADDNDWLAPTGSFAKPFYAGIPESTNKAFIELKNANHFTFTGYNKNIAKYAVSWLKRFVDDDTRYDQFLCPKPATNNEISQSEETCPLH [DP054]”: the PET hydrolysis in series [1] (40 °C, pH 5.5) is 5; in series [1] (40 °C, pH 6.5) it was 7; in series [1] (40 °C, pH 7.5), less than 3; in series [1] (40 °C, pH 8.5) it was less than 3. In addition, in series [2], the “purified protein yield per well” value is 39 µg.

As for “GESPGAAVVAFAGHAKGPAPTEQSVRAQQGPFTTDKLVVPAQAGRGFNKGTIYYPDDTSQGTFGAVAVIPGFLEGESAISWLGPTLASHGFITLTLAPNATTDYPEPRSNQLLAAVDWLANQSPVKDRVDPNRLAVAGHSMGGGGTLIAASKNPALKAAVPLTPWNPHSNFSDVTVPTLIIGADRDFIAPTFMHASPMYNSLKAKQDQAYLKLKNADHFATNRYNATATAYTVSWLKRYVDEDTRYSQFLCPVKSGFQLTCPI [DP011]”, the PET hydrolysis in series [1] (40 °C, pH 5.5) is less than 3; in series [1] (40 °C, pH 6.5), less than 3; in series [1] (40 °C, pH 7.5), less than 3; in series [1] (40 °C, pH 8.5), less than 3. Also, in series [2], the “purified protein yield per well” value was 26 µg.
